Results on 1 substance are retold here after patent US20130217633A1.

For assay [1], the target named is Bcl-2 of primary chronic lymphocytic leukemia (CLL) cells (human) (UniProt P10415). Description: cell-based or functional assay.
Assay [2] concerns the target wild type Bcl-2 (overexpressed in WEHI7.2 cells) (UniProt P10415). Description: cell-based or functional assay.

Sequence of wild type Bcl-2 (overexpressed in WEHI7.2 cells) (P10415 whole entry): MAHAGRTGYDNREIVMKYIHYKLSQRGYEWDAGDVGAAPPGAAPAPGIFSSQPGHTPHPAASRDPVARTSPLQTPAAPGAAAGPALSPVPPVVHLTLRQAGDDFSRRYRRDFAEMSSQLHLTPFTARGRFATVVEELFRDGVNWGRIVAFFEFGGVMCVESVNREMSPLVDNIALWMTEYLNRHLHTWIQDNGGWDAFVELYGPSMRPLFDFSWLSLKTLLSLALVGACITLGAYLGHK
Sequence of Bcl-2 of primary chronic lymphocytic leukemia (CLL) cells (human) (P10415 whole entry): as above

On to “TAT-IDP (IP3R-derived peptide fused with the cell-penetrating peptide of HIV TAT)”, for which the percentage of primary CLL cells with Ca2+ elevation in assay [1] is 26%. In assay [2], the Ca^2+ spikes per cell (single cell Ca2+ imaging, Bcl-2-positive WEHI7.2 cells) (Ca^2+ spikes per cell) was 6; the percentage of Bcl-2-positive WEHI7.2 cells with a sustained pattern of Ca^2+ oscillations (three or more peaks) came to 36%; the percentage of Bcl-2-positive WEHI7.2 cells with one or two isolated Ca^2+ oscillations turned out to be 22%.
